Reference: FireProtDB (doi:10.1021/bi00197a024)

Conditions: Saccharomyces cerevisiae (strain ATCC 204508 / S288c), Thermal, DSC, Sodium phosphate 0.1 M, reversible: yes

Sequence of Cytochrome c isoform 1 wild type, P00044 (P00044 whole entry, canonical isoform): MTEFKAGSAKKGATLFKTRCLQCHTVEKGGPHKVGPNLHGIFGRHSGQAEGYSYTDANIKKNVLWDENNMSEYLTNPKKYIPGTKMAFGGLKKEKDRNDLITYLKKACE
Sequence of Cytochrome c isoform 1 C108A, P00044 (P00044 whole entry C108A, canonical isoform): as the sequence (P00044 whole entry, canonical isoform) above, with C108A counted along it

| Substance | Tm (pH 5, structure 1YCC) [°C] | unfolding enthalpy (calorimetric) (pH 5, structure 1YCC) [kcal/mol] | unfolding enthalpy (van 't Hoff) (pH 5, structure 1YCC) [kcal/mol] | Tm (pH 6, structure 1YCC) [°C] | unfolding enthalpy (calorimetric) (pH 6, structure 1YCC) [kcal/mol] | unfolding enthalpy (van 't Hoff) (pH 6, structure 1YCC) [kcal/mol] | Tm (pH 5) [°C] | unfolding enthalpy (calorimetric) (pH 5) [kcal/mol] | unfolding enthalpy (van 't Hoff) (pH 5) [kcal/mol] | Tm (pH 6) [°C] | unfolding enthalpy (calorimetric) (pH 6) [kcal/mol] | unfolding enthalpy (van 't Hoff) (pH 6) [kcal/mol] |
| --- | --- | --- | --- | --- | --- | --- | --- | --- | --- | --- | --- | --- |
| Cytochrome c isoform 1 C108A, P00044 | 55.5 | 68.9 | 99.2 | 56.2 | 69.9 | 104 |  |  |  |  |  |  |
| Cytochrome c isoform 1 wild type, P00044 |  |  |  |  |  |  | 47.4 | 58.3 | 82.2 | 50.7 | 64.5 | 92.2 |
